B1: peptide-IgG 33^HN1 (peptide p16 fused to the N-terminus of the heavy chain of IgG 15033) (antibody)
heavy: not shown
light: DIQMTQSPSSLSASVGDRVTITCRASQSVSSAVAWYQQKPGKAPKLLIYSASDLYSGVPSRFSGSRSGTDFTLTISSLQPEDFATYYCQQSYRYPITFGQGTKVEIKRTVAAPSVFIFPPSDEQLKSGTASVVCLLNNFYPREAKVQWKVDNALQSGNSQESVTEQDSKDSTYSLSSTLTLSKADYEKHKVYACEVTHQGLSSPVTKSFNRGEC
B2: peptide-IgG 33^LN1 (peptide p16 fused to the N-terminus of the light chain of IgG 15033) (antibody)
heavy: not shown
light: DFDFAENWMEQLKVMLGGGGSGGGGSGGGGSGGGGSDIQMTQSPSSLSASVGDRVTITCRASQSVSSAVAWYQQKPGKAPKLLIYSASDLYSGVPSRFSGSRSGTDFTLTISSLQPEDFATYYCQQSYRYPITFGQGTKVEIKRTVAAPSVFIFPPSDEQLKSGTASVVCLLNNFYPREAKVQWKVDNALQSGNSQESVTEQDSKDSTYSLSSTLTLSKADYEKHKVYACEVTHQGLSSPVTKSFNRGEC
B3: peptide-IgG 33^HR1 (peptide p102 fused to the N-terminus of the heavy chain of IgG 15033) (antibody)
heavy: not shown
light: B1 light
B4: peptide-IgG 33^LR1 (peptide p102 fused to the N-terminus of the light chain of IgG 15033) (antibody)
heavy: not shown
light: ECWEWSYQLQEWSPCPGGGGSGGGGSGGGGSGGGGSDIQMTQSPSSLSASVGDRVTITCRASQSVSSAVAWYQQKPGKAPKLLIYSASDLYSGVPSRFSGSRSGTDFTLTISSLQPEDFATYYCQQSYRYPITFGQGTKVEIKRTVAAPSVFIFPPSDEQLKSGTASVVCLLNNFYPREAKVQWKVDNALQSGNSQESVTEQDSKDSTYSLSSTLTLSKADYEKHKVYACEVTHQGLSSPVTKSFNRGEC
B5: IgG 15031 (antibody, V domains shown)
VH: EVQLVESGGGLVQPGGSLRLSCAASGFDLTGSYMHWVRQAPGKGLEWVAGISASGGATAYADSVKGRFTISADTSKNTAYLQMNSLRAEDTAVYYCARSRSSSYSSSGWRYYSGAFDYWGQGTLVTVSS
VL: DIQMTQSPSSLSASVGDRVTITCRASQSVSSAVAWYQQKPGKAPKLLIYSASDLYSGVPSRFSGSRSGTDFTLTISSLQPEDFATYYCQQGSYLFTFGQGTKVEIKR
B6: 15031 Fab-IgG (tetravalent) (antibody)
heavy: not shown
light: DIQMTQSPSSLSASVGDRVTITCRASQSVSSAVAWYQQKPGKAPKLLIYSASDLYSGVPSRFSGSRSGTDFTLTISSLQPEDFATYYCQQGSYLFTFGQGTKVEIKRTVAAPSVFIFPPSDEQLKSGTASVVCLLNNFYPREAKVQWKVDNALQSGNSQESVTEQDSKDSTYSLSSTLTLSKADYEKHKVYACEVTHQGLSSPVTKSFNRGEC
B7: 15031 IgG-Fab (tetravalent) (antibody)
heavy: not shown
light: B6 light

Columns and labels:
[1] = molecular target: T1, SARS-CoV-2 S protein ectodomain trimer (residues 1-1211, foldon trimerization motif, 6xHis tag, AviT (SARS-CoV-2; bacteriophage T4, UniProt P0DTC2 14-1211; P10104 458-484)
[2] = molecular target: T1, SARS-CoV-2 S protein ectodomain trimer …; assay: BLI on immobilized S protein ECD
[3] = molecular target: T1, SARS-CoV-2 S protein ectodomain trimer …; assay: ELISA on biotinylated S protein trimer captured with immobilized streptavidin
[4] = molecular target: T1, SARS-CoV-2 S protein ectodomain trimer …; assay: BLI on immobilized S protein

Row | Binder | Kd [1] [pM] | koff [1] [s⁻¹] | kon [1] [M⁻¹ s⁻¹] | fold improvement of apparent KD relative to IgG 15033 [2] [fold] | binding result [3] | binding result [4]
1 | B1 | 24 | 3.8e-05 | 1.6e+06 |  |  | 
2 | B2 | < 1 | < 1e-07 | 1.1e+06 | > 100 |  | 
3 | B3 | < 1 | < 1e-07 | 1.2e+06 | > 100 |  | 
4 | B4 | 6.1 | 2.2e-06 | 350000 |  |  | 
5 | B5 |  |  |  |  | binds | 
6 | B6 |  |  |  |  |  | binds
7 | B7 |  |  |  |  |  | binds

From patent US20240182549A1 (published 2024)
